In test [1] the target is Hepatocyte Growth Factor (HGF), human (human, UniProt P14210 32-728). Briefly: ELISA.
In test [2] the target is T1, Placenta Growth Factor (PlGF), human (human, UniProt P49763 21-149).
T1 chain: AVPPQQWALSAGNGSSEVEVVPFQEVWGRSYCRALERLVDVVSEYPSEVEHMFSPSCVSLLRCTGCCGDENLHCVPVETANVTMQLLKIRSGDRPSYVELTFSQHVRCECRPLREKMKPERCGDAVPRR
In words: ELISA. (An ELISA detects its analyte on a solid surface through an enzyme-linked reagent.)

Here are results for 13 molecules from patent US20150045540A1 (published 2015).

Chain of Hepatocyte Growth Factor (HGF), human (P14210 32-728): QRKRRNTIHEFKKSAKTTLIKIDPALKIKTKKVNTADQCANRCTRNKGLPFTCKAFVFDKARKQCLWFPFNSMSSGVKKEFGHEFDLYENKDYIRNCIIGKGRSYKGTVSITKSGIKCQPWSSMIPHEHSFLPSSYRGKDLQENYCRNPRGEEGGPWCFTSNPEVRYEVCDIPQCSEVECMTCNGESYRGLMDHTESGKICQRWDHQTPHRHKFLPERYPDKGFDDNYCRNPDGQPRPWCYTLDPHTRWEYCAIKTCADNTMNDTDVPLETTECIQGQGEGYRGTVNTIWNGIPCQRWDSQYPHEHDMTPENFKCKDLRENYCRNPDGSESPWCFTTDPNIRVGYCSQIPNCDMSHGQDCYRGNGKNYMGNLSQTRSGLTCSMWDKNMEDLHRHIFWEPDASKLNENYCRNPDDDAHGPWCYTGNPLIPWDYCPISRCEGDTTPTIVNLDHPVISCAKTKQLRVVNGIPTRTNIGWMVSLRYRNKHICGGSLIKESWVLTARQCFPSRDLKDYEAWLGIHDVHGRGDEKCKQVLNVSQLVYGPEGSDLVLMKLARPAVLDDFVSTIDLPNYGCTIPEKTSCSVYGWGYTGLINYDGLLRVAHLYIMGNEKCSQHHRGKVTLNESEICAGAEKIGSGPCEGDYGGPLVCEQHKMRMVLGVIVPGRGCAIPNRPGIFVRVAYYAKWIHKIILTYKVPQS

B1: HC 6/SLC 2 (antibody)
chain 1: GQGTLVTVSSASTKGPQPVLHQPPAMSSALGTTIRLTCTLRNDHDIGVYSVYWYQQRPGHPPRFLLRYFSQSDKSQGPQVPPRFSGSKDVARNRGYLSISELQPEDEAMYYCAMGARSRCWPRGFQSKHNSVTHVFGSGTQLTVLSQPKATPSVTLFPPSSEELQANKATLVCLMNDFYPGILTVTWKADGTPITQGVEMTTPSKQSNNKYAASSYLSLTPEQWRSRRSYSCQVMHEGSTVEKTVAPAECS
chain 2: MSWAPVLLMLFVYCTGCGPQPVLHQPPAMSSALGTTIRLTCTLRNDHDIGVYSVYWYQQRPGHPPRFLLRYFSQSDKSQGPQVPPRFSGSKDVARNRGYLSISVTHVFGSGTQLTVLSQQVQLVQ
Consider B1, for which the values for the EC50 in test [1] and in test [2] were 60 pM and 229 pM, respectively.

B2: HC 9/SLC 2 (antibody)
chain 1: GQGTLVTVSSASTKGPSVFQPVLHQPPAMSSALGTTIRLTCTLRNDHDIGVYSVYWYQQRPGHPPRFLLRYFSQSDKSQGPQVPPRFSGSKDVARNRGYLSISELQPEDEAMYYCAMGARSRCWPRGFQSKHNSVTHVFGSGTQLTVLSQPKATPSVTLFPPSSEELQANKATLVCLMNDFYPGILTVTWKADGTPITQGVEMTTPSKQSNNKYAASSYLSLTPEQWRSRRSYSCQVMHEGSTVEKTVAPAECS
chain 2: MSWAPVLLMLFVYCTGCGPQPVLHQPPAMSSALGTTIRLTCTLRNDHDIGVYSVYWYQQRPGHPPRFLLRYFSQSDKSQGPQVPPRFSGSKDVARNRGYLSISVTHVFGSGTQLTVLSQQVQLVQ
B2: the EC50 in test [1] came to 62 pM; in test [2], 211 pM.

B3: HC 5/SLC 9 (antibody)
chain 1: GQGTLVTVSSASTKGQPVLHQPPAMSSALGTTIRLTCTLRNDHDIGVYSVYWYQQRPGHPPRFLLRYFSQSDKSQGPQVPPRFSGSKDVARNRGYLSISELQPEDEAMYYCAMGARSRCWPRGFQSKHNSVTHVFGSGTQLTVLSQPKATPSVTLFPPSSEELQANKATLVCLMNDFYPGILTVTWKADGTPITQGVEMTTPSKQSNNKYAASSYLSLTPEQWRSRRSYSCQVMHEGSTVEKTVAPAECS
chain 2: MSWAPVLLMLFVYCTGCGPQPVLHQPPAMSSALGTTIRLTCTLRNDHDIGVYSVYWYQQRPGHPPRFLLRYFSQSDKSQGPQVPPRFSGSKDVARNRGYLSISVTHVFGSGTQLTVLSQPKATPSVQVQLVQ
As to B3, the EC50 came out at 52 pM in test [1] and 66 pM in test [2].

B4: HC 5/SLC 5 (antibody)
chain 1: GQGTLVTVSSASTKGQPVLHQPPAMSSALGTTIRLTCTLRNDHDIGVYSVYWYQQRPGHPPRFLLRYFSQSDKSQGPQVPPRFSGSKDVARNRGYLSISELQPEDEAMYYCAMGARSRCWPRGFQSKHNSVTHVFGSGTQLTVLSQPKATPSVTLFPPSSEELQANKATLVCLMNDFYPGILTVTWKADGTPITQGVEMTTPSKQSNNKYAASSYLSLTPEQWRSRRSYSCQVMHEGSTVEKTVAPAECS
chain 2: MSWAPVLLMLFVYCTGCGPQPVLHQPPAMSSALGTTIRLTCTLRNDHDIGVYSVYWYQQRPGHPPRFLLRYFSQSDKSQGPQVPPRFSGSKDVARNRGYLSISVTHVFGSGTQLTVLSQPKAQVQLVQ
With B4, the EC50 in test [1] worked out at 63 pM; in test [2], 256 pM.

B5: HC 6/SLC 9 (antibody)
chain 1: GQGTLVTVSSASTKGPQPVLHQPPAMSSALGTTIRLTCTLRNDHDIGVYSVYWYQQRPGHPPRFLLRYFSQSDKSQGPQVPPRFSGSKDVARNRGYLSISELQPEDEAMYYCAMGARSRCWPRGFQSKHNSVTHVFGSGTQLTVLSQPKATPSVTLFPPSSEELQANKATLVCLMNDFYPGILTVTWKADGTPITQGVEMTTPSKQSNNKYAASSYLSLTPEQWRSRRSYSCQVMHEGSTVEKTVAPAECS
chain 2: MSWAPVLLMLFVYCTGCGPQPVLHQPPAMSSALGTTIRLTCTLRNDHDIGVYSVYWYQQRPGHPPRFLLRYFSQSDKSQGPQVPPRFSGSKDVARNRGYLSISVTHVFGSGTQLTVLSQPKATPSVQVQLVQ
On to B5, for which the values for the half-maximal effective concentration (EC50) in test [1] and in test [2] were 47 pM and 53 pM, respectively.

B6: HC 5/SLC 3 (antibody)
chain 1: GQGTLVTVSSASTKGQPVLHQPPAMSSALGTTIRLTCTLRNDHDIGVYSVYWYQQRPGHPPRFLLRYFSQSDKSQGPQVPPRFSGSKDVARNRGYLSISELQPEDEAMYYCAMGARSRCWPRGFQSKHNSVTHVFGSGTQLTVLSQPKATPSVTLFPPSSEELQANKATLVCLMNDFYPGILTVTWKADGTPITQGVEMTTPSKQSNNKYAASSYLSLTPEQWRSRRSYSCQVMHEGSTVEKTVAPAECS
chain 2: MSWAPVLLMLFVYCTGCGPQPVLHQPPAMSSALGTTIRLTCTLRNDHDIGVYSVYWYQQRPGHPPRFLLRYFSQSDKSQGPQVPPRFSGSKDVARNRGYLSISVTHVFGSGTQLTVLSQPQVQLVQ
Consider B6, for which the half-maximal effective concentration (EC50) turned out to be 64 pM in test [1] and 181 pM in test [2].

B7: HC 5/SLC 4 (antibody)
chain 1: GQGTLVTVSSASTKGQPVLHQPPAMSSALGTTIRLTCTLRNDHDIGVYSVYWYQQRPGHPPRFLLRYFSQSDKSQGPQVPPRFSGSKDVARNRGYLSISELQPEDEAMYYCAMGARSRCWPRGFQSKHNSVTHVFGSGTQLTVLSQPKATPSVTLFPPSSEELQANKATLVCLMNDFYPGILTVTWKADGTPITQGVEMTTPSKQSNNKYAASSYLSLTPEQWRSRRSYSCQVMHEGSTVEKTVAPAECS
chain 2: MSWAPVLLMLFVYCTGCGPQPVLHQPPAMSSALGTTIRLTCTLRNDHDIGVYSVYWYQQRPGHPPRFLLRYFSQSDKSQGPQVPPRFSGSKDVARNRGYLSISVTHVFGSGTQLTVLSQPKQVQLVQ
For B7, the concentration giving a half-maximal response (EC50) worked out at 65 pM in test [1] and 207 pM in test [2].

B8: HC 10/SLC 3 (antibody)
chain 1: GQGTLVTVSSASTKGPSVFPQPVLHQPPAMSSALGTTIRLTCTLRNDHDIGVYSVYWYQQRPGHPPRFLLRYFSQSDKSQGPQVPPRFSGSKDVARNRGYLSISELQPEDEAMYYCAMGARSRCWPRGFQSKHNSVTHVFGSGTQLTVLSQPKATPSVTLFPPSSEELQANKATLVCLMNDFYPGILTVTWKADGTPITQGVEMTTPSKQSNNKYAASSYLSLTPEQWRSRRSYSCQVMHEGSTVEKTVAPAECS
chain 2: MSWAPVLLMLFVYCTGCGPQPVLHQPPAMSSALGTTIRLTCTLRNDHDIGVYSVYWYQQRPGHPPRFLLRYFSQSDKSQGPQVPPRFSGSKDVARNRGYLSISVTHVFGSGTQLTVLSQPQVQLVQ
As to B8, the values for the half-maximal effective concentration (EC50) in test [1] and in test [2] were 74 pM and 121 pM, respectively.

B9: HC 9/SLC 15 (antibody)
chain 1: GQGTLVTVSSASTKGPSVFQPVLHQPPAMSSALGTTIRLTCTLRNDHDIGVYSVYWYQQRPGHPPRFLLRYFSQSDKSQGPQVPPRFSGSKDVARNRGYLSISELQPEDEAMYYCAMGARSRCWPRGFQSKHNSVTHVFGSGTQLTVLSQPKATPSVTLFPPSSEELQANKATLVCLMNDFYPGILTVTWKADGTPITQGVEMTTPSKQSNNKYAASSYLSLTPEQWRSRRSYSCQVMHEGSTVEKTVAPAECS
chain 2: MSWAPVLLMLFVYCTGCGPQPVLHQPPAMSSALGTTIRLTCTLRNDHDIGVYSVYWYQQRPGHPPRFLLRYFSQSDKSQGPQVPPRFSGSKDVARNRGYLSISVTHVFGSGTQLTVLSQPKATPSVTGGGGSQVQLVQ
For B9, the results for the half-maximal effective concentration (EC50) in test [1] and in test [2] were 49 pM and 47 pM, respectively.

B10: HC 7/SLC 8 (antibody)
chain 1: GQGTLVTVSSASTKGPSQPVLHQPPAMSSALGTTIRLTCTLRNDHDIGVYSVYWYQQRPGHPPRFLLRYFSQSDKSQGPQVPPRFSGSKDVARNRGYLSISELQPEDEAMYYCAMGARSRCWPRGFQSKHNSVTHVFGSGTQLTVLSQPKATPSVTLFPPSSEELQANKATLVCLMNDFYPGILTVTWKADGTPITQGVEMTTPSKQSNNKYAASSYLSLTPEQWRSRRSYSCQVMHEGSTVEKTVAPAECS
chain 2: MSWAPVLLMLFVYCTGCGPQPVLHQPPAMSSALGTTIRLTCTLRNDHDIGVYSVYWYQQRPGHPPRFLLRYFSQSDKSQGPQVPPRFSGSKDVARNRGYLSISVTHVFGSGTQLTVLSQPKATPSQVQLVQ
On to B10, for which the 50% effective concentration (EC50) was determined as 56 pM in test [1] and 95 pM in test [2].

B11: HC 7/SLC 7 (antibody)
chain 1: GQGTLVTVSSASTKGPSQPVLHQPPAMSSALGTTIRLTCTLRNDHDIGVYSVYWYQQRPGHPPRFLLRYFSQSDKSQGPQVPPRFSGSKDVARNRGYLSISELQPEDEAMYYCAMGARSRCWPRGFQSKHNSVTHVFGSGTQLTVLSQPKATPSVTLFPPSSEELQANKATLVCLMNDFYPGILTVTWKADGTPITQGVEMTTPSKQSNNKYAASSYLSLTPEQWRSRRSYSCQVMHEGSTVEKTVAPAECS
chain 2: MSWAPVLLMLFVYCTGCGPQPVLHQPPAMSSALGTTIRLTCTLRNDHDIGVYSVYWYQQRPGHPPRFLLRYFSQSDKSQGPQVPPRFSGSKDVARNRGYLSISVTHVFGSGTQLTVLSQPKATPQVQLVQ
On to B11, for which the EC50 in test [1] worked out at 56 pM; in test [2], 106 pM.

B12: HC 7/SLC 3 (antibody)
chain 1: GQGTLVTVSSASTKGPSQPVLHQPPAMSSALGTTIRLTCTLRNDHDIGVYSVYWYQQRPGHPPRFLLRYFSQSDKSQGPQVPPRFSGSKDVARNRGYLSISELQPEDEAMYYCAMGARSRCWPRGFQSKHNSVTHVFGSGTQLTVLSQPKATPSVTLFPPSSEELQANKATLVCLMNDFYPGILTVTWKADGTPITQGVEMTTPSKQSNNKYAASSYLSLTPEQWRSRRSYSCQVMHEGSTVEKTVAPAECS
chain 2: MSWAPVLLMLFVYCTGCGPQPVLHQPPAMSSALGTTIRLTCTLRNDHDIGVYSVYWYQQRPGHPPRFLLRYFSQSDKSQGPQVPPRFSGSKDVARNRGYLSISVTHVFGSGTQLTVLSQPQVQLVQ
In the case of B12, the EC50 stood at 67 pM in test [1] and 182 pM in test [2].

B13: HC 4/SLC 5 (antibody)
chain 1: GQGTLVTVSSASTKQPVLHQPPAMSSALGTTIRLTCTLRNDHDIGVYSVYWYQQRPGHPPRFLLRYFSQSDKSQGPQVPPRFSGSKDVARNRGYLSISELQPEDEAMYYCAMGARSRCWPRGFQSKHNSVTHVFGSGTQLTVLSQPKATPSVTLFPPSSEELQANKATLVCLMNDFYPGILTVTWKADGTPITQGVEMTTPSKQSNNKYAASSYLSLTPEQWRSRRSYSCQVMHEGSTVEKTVAPAECS
chain 2: MSWAPVLLMLFVYCTGCGPQPVLHQPPAMSSALGTTIRLTCTLRNDHDIGVYSVYWYQQRPGHPPRFLLRYFSQSDKSQGPQVPPRFSGSKDVARNRGYLSISVTHVFGSGTQLTVLSQPKAQVQLVQ
Turning to B13, the EC50 stood at 59 pM in test [1] and 282 pM in test [2].

By EC50 is commonly meant the concentration giving half of the maximal effect. Low readings indicate a more potent agent, high ones a less potent agent.
